Residue numbers refer to the chain shown, from its start.
B1: t865771 (protein)
chain: MGNTTSIAGRDCLISALGGNSALAVFPNELLWTADVHEYNLNLPVTPAAITYPETAAQIAGVVKCASDYDYKVQARSGGHSFGNYGLGGADGAVVVDMKHFTQFSMDDETYEAVIGPGTTLNDVDIELYNNGKRAMAHGVCPTIKTGGHFTIGGLGPTARQWGLALDHVEEVEVVLANSSIVRASNTQNQDVFFAVKGAAANFGIVTEFKVRTEPAPGLAVQYSYTFNLGSTAEKAQFVKDWQSFISAKNLTRQFYNNMVIFDGDIILEGLFFGSKEQYDALGLEDHFAPKNPGNILVLTDWLGMVGHALEDTILKLVGNTPTWFYAKSLGFRQDTLIPSAGIDEFFEYIANHTAGTPAWFVTLSLEGGAINDVAEDATAYAHRDVLFWVQLFMVNPVGPISDTTYEFTNGLYDVLARAVPESVGHAYLGCPDPRMEDAQQKYWRTNLPRLQELKEELDPKNTFHHPQGVMPA
modifications: expressed in S. cerevisiae strain
B2: t878470 (protein)
chain: B1 chain with A57Q, G61A, N410D
modifications: expressed in S. cerevisiae strain
B3: t865690 (protein)
chain: B1 chain with N122A, I126T, N410D
B4: t865689 (protein)
chain: B1 chain with N122G, I126R, N410D
B5: t865805 (protein)
chain: B1 chain with T55S, I126T, N410D
modifications: expressed in S. cerevisiae strain
B6: t878464 (protein)
chain: B1 chain with R183T, N410D
modifications: expressed in S. cerevisiae strain
B7: t865749 (protein)
chain: B1 chain with Y71I, N410D
modifications: expressed in S. cerevisiae strain
B8: t865750 (protein)
chain: B1 chain with S180T, N410D
modifications: expressed in S. cerevisiae strain
B9: t865711 (protein)
chain: B1 chain with N122G, V398F, N410D
B10: t865739 (protein)
chain: B1 chain with N410D, R450K
B11: t865728 (protein)
chain: B1 chain with H287R, A341S, N410D

tested on: CBCVA, THCVA, and CBDVA production; assay: In vivo TS activity assay, Example 2 protein engineering of A. niger CBCAS, cultures fed divaric acid; type: cell-based, S. cerevisiae; settings: S. cerevisiae strains expressing A. niger CBCAS mutants, secondary screen, fed divaric acid
Protocol: (§1) An assay to detect TS activity was conducted as follows: each thawed glycerol stock of candidate CBCAS transformants was stamped into a well of YEP+4% dextrose media. Samples were incubated at 30° C. in a shaking incubator for 2 days. A portion of each of the resulting cultures was stamped into a well of YEP+4% galactose+1 mM olivetolic acid (FIG. 1 Structure 6a). Samples were incubated at 20° C. and shaken in a shaking incubator for 4 days. Every 24 hours during those 4 days, 2% galactose and 1 mM olivetolic acid were spiked into the cultures. Sodium citrate buffer adjusted to pH 5.5 was added to each well at a final concentration of 100 mM. Samples were incubated at 20° C. and shaken in a shaking incubator for 2 days. A portion of each of the resulting production cultures was stamped into a well of phosphate buffered saline (PBS). Optical measurements were taken on a plate reader, with absorbance measured at 600 nm and fluorescence at 528 nm with 485 nm excitation. Samples were incubated at 30° C. in a shaking incubator for 2 days. 100% methanol was stamped into the production cultures in half-height deepwell plates. Plates were heat sealed and frozen. Samples were then thawed for 30 min and spun down at 4° C. A portion of the supernatant was stamped into half-area 96 well plates. CBCA, THCA, and CBDA production in the samples was quantified via liquid chromatography-mass spectrometry (LC-MS).
(§2) To determine whether engineering of the A. niger CBCAS identified in Example 1 (corresponding to SEQ ID NO: 29 (with signal peptides); SEQ ID NO: 27 (without signal peptides and including an N-terminal methionine (UniProt accession No. A0A254UC34)); or SEQ ID NO: 25 (without signal peptides and without the N-terminal methionine)), could alter CBCAS substrate specificity, product specificity and/or amounts of products produced, point mutations were generated in A. niger CBCAS and the mutant versions of the protein were expressed in S. cerevisiae. A library containing 1047 A. niger CBCAS mutants was generated and screened. As in Example 1, each CBCAS mutant in the library, as well as the enzymes expressed by positive control strains, included an N-terminal MFalpha2 signal peptide (SEQ ID NO: 16) (with a methionine residue added at the N-terminus of the MFalpha2 signal peptide) and a C-terminal HDEL signal peptide (SEQ ID NO: 17).
(§3) Of the original 1047 library members, 55 strains were elevated to a secondary screen to verify CBCA production. The experimental protocol for the secondary screen was identical to the primary screen, except that additional biological replicates were included per strain, and replicate production cultures for each strain were separately fed 1 mM boluses of olivetolic acid or 1 mM boluses of divaric acid. All strains were screened in quadruplicate.

| Molecule | Mean CBCVA [µg/L] | Mean CBDVA [µg/L] | Mean THCVA [µg/L] |
| --- | --- | --- | --- |
| B1 | 1592.02 | 0.00 | 968.82 |
| B2 | 3226.77 | 0.00 | 1646.54 |
| B3 | 2557.72 | 0.00 | 1441.19 |
| B4 | 6333.32 | 0.00 | 2791.18 |
| B5 | 3077.84 | 0.00 | 1538.55 |
| B6 | 5383.16 | 0.00 | 2710.86 |
| B7 | 2230.06 | 0.00 | 997.07 |
| B8 | 5745.78 | 0.00 | 2770.13 |
| B9 | 2442.93 | 0.00 | 1315.45 |
| B10 | 4265.42 | 0.00 | 2039.44 |
| B11 | 3907.72 | 0.00 | 1759.32 |

same assay, conditions: secondary screen

| Molecule | average CBCVA titer compared with the A. niger positive control |
| --- | --- |
| B4 | higher |
| B6 | higher |
| B8 | higher |
| B10 | higher |
| B11 | higher |

same assay, conditions: share of terminal cannabinoid product profile, fed divaric acid

| Molecule | % CBCVA [%] | % CBDVA [%] | % THCVA [%] |
| --- | --- | --- | --- |
| B1 | 62.17 | 0.00 | 37.83 |
| B2 | 66.21 | 0.00 | 33.79 |
| B3 | 63.96 | 0.00 | 36.04 |
| B4 | 69.41 | 0.00 | 30.59 |
| B5 | 66.67 | 0.00 | 33.33 |
| B6 | 66.51 | 0.00 | 33.49 |
| B7 | 69.10 | 0.00 | 30.90 |
| B8 | 67.47 | 0.00 | 32.53 |
| B9 | 65.00 | 0.00 | 35.00 |
| B10 | 67.65 | 0.00 | 32.35 |
| B11 | 68.96 | 0.00 | 31.04 |

tested on: CBCA, THCA, and CBDA production; assay: In vivo TS activity assay, Example 2 protein engineering of A. niger CBCAS, cultures fed olivetolic acid; type: cell-based, S. cerevisiae; settings: secondary screen
Protocol: as §1, §2
Production of compounds of Formulae (9), (10), and/or (11), including compounds of Formulae (9a), (10a), and/or (11a) by strains expressing the mutated versions of A. niger CBCAS was quantified and compared to the production of the same compounds by a strain expressing wild-type A. niger CBCAS, a strain expressing a C. sativa THCAS, and a strain expressing a C. sativa CBDAS. The strains were screened using the same assay described in Example 1. Production of CBCA, THCA, and/or CBDA in the samples was quantified via LC-MS.
as §3

| Molecule | average CBCA titer compared with the A. niger positive control |
| --- | --- |
| B1 | higher |
| B2 | higher |
| B3 | higher |
| B4 | higher |
| B5 | higher |
| B6 | higher |
| B7 | higher |
| B8 | higher |
| B9 | higher |
| B10 | higher |
| B11 | higher |

same assay, conditions: secondary screen, olivetolic acid (Table 8)

| Molecule | Mean CBCA [µg/L] | Mean CBDA [µg/L] | Mean THCA [µg/L] |
| --- | --- | --- | --- |
| B1 | 40971.16 | 8309.68 | 2638.90 |
| B2 | 64502.70 | 10538.52 | 2739.24 |
| B3 | 38065.26 | 8288.48 | 2186.36 |
| B4 | 38241.90 | 10157.65 | 2452.92 |
| B5 | 34567.68 | 8917.97 | 2285.23 |
| B6 | 38911.71 | 9203.22 | 2062.10 |
| B7 | 37290.06 | 6071.00 | 2140.74 |
| B8 | 39940.41 | 10807.90 | 2475.89 |
| B9 | 33994.02 | 9666.71 | 2096.22 |
| B10 | 40214.21 | 10767.85 | 2538.89 |
| B11 | 36875.12 | 8996.37 | 2692.19 |

same assay, conditions: share of terminal cannabinoid product profile

| Molecule | % CBCA [%] | % CBDA [%] | % THCA [%] |
| --- | --- | --- | --- |
| B1 | 78.91 | 16.00 | 5.08 |
| B2 | 82.93 | 13.55 | 3.52 |
| B3 | 78.42 | 17.08 | 4.50 |
| B4 | 75.20 | 19.97 | 4.82 |
| B5 | 75.52 | 19.48 | 4.99 |
| B6 | 77.55 | 18.34 | 4.11 |
| B7 | 81.95 | 13.34 | 4.70 |
| B8 | 75.04 | 20.31 | 4.65 |
| B9 | 74.29 | 21.13 | 4.58 |
| B10 | 75.14 | 20.12 | 4.74 |
| B11 | 75.93 | 18.52 | 5.54 |

Reference: US20230137139A1, “BIOSYNTHESIS OF CANNABINOIDS AND C[…]” (priority 2020, published 2023)
